The target of test [1] is T1, human adenosine A2A receptor (A2aR) (human, UniProt P29274 1-412).
T1 construct: Assays used HEK293 cells stably overexpressing human A2aR (BPS Bioscience 79381), human A2aR-expressing CHO cells, or endogenous A2aR on human PBMC; also called human A2aR; hA2aR
Description: flow cytometry, HEK293-hA2aR cells, supernatant 1 ug/ml. (A flow cytometer gives signals particle by particle.)

Test [2] has as its target T1, human adenosine A2A receptor (A2aR). The test is described as above. The source holds these as a separate data set.

This note sets out measurements from patent US20250206828A1, “ANTI-ADENOSINE RECEPTOR (A2aR) ANTIBODIES AND THE USE THEREOF” (Adept Therapeutics Inc., priority 2022, published 2025).

Positions count from the first letter of the chain named. Names may count otherwise. Like-named read-outs stand apart in the source and are kept apart here.

T1 sequence (P29274 whole entry): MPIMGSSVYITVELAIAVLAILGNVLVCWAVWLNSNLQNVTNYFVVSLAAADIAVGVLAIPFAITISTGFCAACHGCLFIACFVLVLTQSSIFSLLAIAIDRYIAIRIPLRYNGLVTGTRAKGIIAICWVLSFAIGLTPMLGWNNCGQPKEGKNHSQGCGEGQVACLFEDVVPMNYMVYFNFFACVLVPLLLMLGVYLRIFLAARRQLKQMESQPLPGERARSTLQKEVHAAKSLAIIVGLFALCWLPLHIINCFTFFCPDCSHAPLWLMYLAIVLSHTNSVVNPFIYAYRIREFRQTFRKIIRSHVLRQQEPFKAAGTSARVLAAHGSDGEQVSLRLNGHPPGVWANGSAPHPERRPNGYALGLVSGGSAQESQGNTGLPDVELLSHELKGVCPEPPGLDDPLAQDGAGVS

B1: Hu1B5-H1/Hu1B5-L4 (antibody, human IgG1, V domains shown)
VH: QVQLVQSGAEVKKPGASVKVSCKASGFTFTRFWMNWVRQAPGQGLEWMGRIDPYDSETQYNHKFWDRVTMTRDTSTSTVYMELSSLRSEDTAVYYCGRSLYGKGDYWGQGTTVTVSS
VL: DVVMTQSPLSLPVTPGEPASISCRSSQSIVHSNGNTYLEWYLQKPGQSPQLLIYKVSNRFSGVPDRFSGSGSGTDFTLKISRVEAEDVGVYYCFQGSHVPLTFGGGTKVEIK
notes: Human IgG1 FES (L234F, L235E, P331S) and human Ig kappa constant domains
B1 gave an MFI in test [1] of 1570 MFI.

B2: Hu3F6-H6/Hu3F6-L8 (antibody, human IgG1, V domains shown)
VH: EVQLVQSGAEVKKPGESLRISCKASGFAFTSYWMNWVRQMPGKGLEWIGRIDPSDSEAHYHHKFWGHATLSVDKSSSTVYLQWSSLKASDTAMYYCLRSLYGKGDYWGHGTTVTVSS
VL: B1 VL with I29L, S32R, F94Y
notes: as for B1
For the molecule B2, the MFI in test [2] stood at 2000 MFI.

B3: Hu3F6-H3/Hu3F6-L6 (antibody, human IgG1, V domains shown)
VH: EVQLVQSGAEVKKPGASVKVSCKTSGFAFTSYWMNWVRQAPGQGLEWIGRIDPSDSEAHYHHKFWGRATLTVDTSSSTVYMELSSLRSEDTAVYYCLRSLYGKGDYWGHGTTVTVSS
VL: B1 VL with V2I, S7T, L9P, T14N, I29L, S32R, T74S, R82W, F94Y
notes: as for B1
Regarding B3, the MFI in test [2] stood at 1660 MFI.

B4: Hu3F6-H1/Hu3F6-L5 (antibody, human IgG1, V domains shown)
VH: B3 VH with E1Q, T24A, I48M, A68V, L70M, V72R, S76T
VL: B1 VL with S7T, P12S, E17Q, I29L, S32R, F94Y
notes: as for B1
Regarding B4, the MFI in test [2] stood at 1500 MFI.

B5: Hu3F6-H4/Hu3F6-L4 (antibody, human IgG1, V domains shown)
VH: B3 VH with T74K
VL: B1 VL with V2I, S7T, P12S, E17Q, I29L, S32R, F94Y
notes: as for B1
With B5, in test [2], the MFI is 1450 MFI.

B6: Hu3F6-H5/Hu3F6-L6 (antibody, human IgG1, V domains shown)
VH: B3 VH with H61A, T74K
VL: B1 VL with V2I, S7T, L9P, T14N, I29L, S32R, T74S, R82W, F94Y
notes: as for B1
With B6, the MFI in test [2] is 1840 MFI.

B7: Hu3F6-H1/Hu3F6-L4 (antibody, human IgG1, V domains shown)
VH: B3 VH with E1Q, T24A, I48M, A68V, L70M, V72R, S76T
VL: B1 VL with V2I, S7T, P12S, E17Q, I29L, S32R, F94Y
notes: as for B1
Take B7: the MFI in test [2] came out at 1320 MFI.

B8: Hu3F6-H1/Hu3F6-L1 (antibody, human IgG1, V domains shown)
VH: B3 VH with E1Q, T24A, I48M, A68V, L70M, V72R, S76T
VL: B1 VL with P15L, E17Q, I29L, S32R, Y41F, L42Q, K44R, Q50R, L51R, F94Y
notes: as for B1
B8 showed an MFI in test [2] of 15 MFI.

B9: Hu3F6-H1/Hu3F6-L6 (antibody, human IgG1, V domains shown)
VH: B3 VH with E1Q, T24A, I48M, A68V, L70M, V72R, S76T
VL: B1 VL with V2I, S7T, L9P, T14N, I29L, S32R, T74S, R82W, F94Y
notes: as for B1
For B9, in test [2], the MFI stood at 313 MFI.

B10: Hu3F6-H3/Hu3F6-L7 (antibody, human IgG1, V domains shown)
VH: B3 VH
VL: B1 VL with S7T, L9P, T14N, I29L, S32R, T74S, R82W, F94Y
notes: as for B1
On to B10, for which the MFI in test [2] is 1510 MFI.

B11: Hu3F6-H4/Hu3F6-L2 (antibody, human IgG1, V domains shown)
VH: B3 VH with T74K
VL: B1 VL with P15L, E17Q, I29L, S32R, L42Q, K44R, Q50R, L51R, F94Y
notes: as for B1
For B11, the MFI in test [2] came out at 255 MFI.

B12: Hu3F6-H2/Hu3F6-L1 (antibody, human IgG1, V domains shown)
VH: B3 VH with I48M, A68V, L70M, S76T
VL: B1 VL with P15L, E17Q, I29L, S32R, Y41F, L42Q, K44R, Q50R, L51R, F94Y
notes: as for B1
The molecule B12 returned an MFI in test [2] of 13 MFI.

B13: Hu3F6-H4/Hu3F6-L6 (antibody, human IgG1, V domains shown)
VH: B3 VH with T74K
VL: B1 VL with V2I, S7T, L9P, T14N, I29L, S32R, T74S, R82W, F94Y
notes: as for B1
In the case of B13, in test [2], the MFI was 1960 MFI.

B14: Hu3F6-H1/Hu3F6-L7 (antibody, human IgG1, V domains shown)
VH: B3 VH with E1Q, T24A, I48M, A68V, L70M, V72R, S76T
VL: B1 VL with S7T, L9P, T14N, I29L, S32R, T74S, R82W, F94Y
notes: as for B1
Turning to B14, in test [2], the MFI worked out at 290 MFI.

B15: Hu3F6-H4/Hu3F6-L5 (antibody, human IgG1, V domains shown)
VH: B3 VH with T74K
VL: B1 VL with S7T, P12S, E17Q, I29L, S32R, F94Y
notes: as for B1
On to B15, for which the MFI in test [2] stood at 1990 MFI.

B16: Hu3F6-H4/Hu3F6-L7 (antibody, human IgG1, V domains shown)
VH: B3 VH with T74K
VL: B1 VL with S7T, L9P, T14N, I29L, S32R, T74S, R82W, F94Y
notes: as for B1
On to B16, for which, in test [2], the MFI worked out at 1880 MFI.

B17: Hu3F6-H1/Hu3F6-L3 (antibody, human IgG1, V domains shown)
VH: B3 VH with E1Q, T24A, I48M, A68V, L70M, V72R, S76T
VL: B1 VL with P15L, E17Q, I29L, S32R, L42Q, K44R, Q50R, F94Y
notes: as for B1
With B17, the MFI in test [2] worked out at 1600 MFI.

B18: Hu3F6-H5/Hu3F6-L7 (antibody, human IgG1, V domains shown)
VH: B3 VH with H61A, T74K
VL: B1 VL with S7T, L9P, T14N, I29L, S32R, T74S, R82W, F94Y
notes: as for B1
In test [2], B18 registered an MFI of 1890 MFI.

B19: Hu3F6-H4/Hu3F6-L3 (antibody, human IgG1, V domains shown)
VH: B3 VH with T74K
VL: B1 VL with P15L, E17Q, I29L, S32R, L42Q, K44R, Q50R, F94Y
notes: as for B1
On to B19, for which, in test [2], the MFI came out at 1960 MFI.

B20: Hu1B5-H1/Hu1B5-L1 (antibody, human IgG1, V domains shown)
VH: B1 VH
VL: B1 VL with P15L, E17Q, Y41F, L42Q, K44R, Q50R, L51R
notes: as for B1
Regarding B20, the MFI in test [1] worked out at 34 MFI.

B21: Hu3F6-H2/Hu3F6-L6 (antibody, human IgG1, V domains shown)
VH: B3 VH with I48M, A68V, L70M, S76T
VL: B1 VL with V2I, S7T, L9P, T14N, I29L, S32R, T74S, R82W, F94Y
notes: as for B1
B21 yielded an MFI in test [2] of 1580 MFI.

B22: Hu3F6-H1/Hu3F6-L2 (antibody, human IgG1, V domains shown)
VH: B3 VH with E1Q, T24A, I48M, A68V, L70M, V72R, S76T
VL: B1 VL with P15L, E17Q, I29L, S32R, L42Q, K44R, Q50R, L51R, F94Y
notes: as for B1
B22 had an MFI in test [2] of 14 MFI.

B23: Hu1B5-H2.1/Hu1B5-L5 (antibody, human IgG1, V domains shown)
VH: B1 VH with Q1E, A24T, M48I, R72V
VL: DIVMTQSPDSLAVSLGERATINCRSSQSIVHSNGNTYLEWYQQKPGQPPKLLIYKVSNRFSGVPDRFSGSGSGTDFTLTISSLQAEDVAVYYCFQGSHVPLTFGGGTKVEIK
notes: as for B1
In test [1], B23 yielded an MFI of 960 MFI.

B24: Hu3F6-H2/Hu3F6-L7 (antibody, human IgG1, V domains shown)
VH: B3 VH with I48M, A68V, L70M, S76T
VL: B1 VL with S7T, L9P, T14N, I29L, S32R, T74S, R82W, F94Y
notes: as for B1
For the molecule B24, the MFI in test [2] amounted to 1180 MFI.

B25: Hu1B5-H3/Hu1B5-L4 (antibody, human IgG1, V domains shown)
VH: B1 VH with Q1E, A24T, M48I, V68A, M70L, R72V, T76S
VL: B1 VL
notes: as for B1
For B25, the MFI in test [1] was found to be 1550 MFI.

B26: Hu3F6-H4/Hu3F6-L8 (antibody, human IgG1, V domains shown)
VH: B3 VH with T74K
VL: B1 VL with I29L, S32R, F94Y
notes: as for B1
On to B26, for which, in test [2], the MFI was found to be 1710 MFI.

B27: Hu3F6-H6/Hu3F6-L6 (antibody, human IgG1, V domains shown)
VH: B2 VH
VL: B1 VL with V2I, S7T, L9P, T14N, I29L, S32R, T74S, R82W, F94Y
notes: as for B1
In test [2], B27 came in with an MFI of 979 MFI.

B28: Hu1B5-H4/Hu1B5-L4 (antibody, human IgG1, V domains shown)
VH: B1 VH with Q1E, A24T, M48I, V68A, M70L, R72V, T74K, T76S
VL: B1 VL
notes: as for B1
With B28, the MFI in test [1] turned out to be 1780 MFI.

B29: Hu1B5-H5/Hu1B5-L4 (antibody, human IgG1, V domains shown)
VH: B1 VH with Q1E, A24T, M48I, N61A, V68A, M70L, R72V, T74K, T76S
VL: B1 VL
notes: as for B1
Take B29: the MFI in test [1] amounted to 1710 MFI.

B30: Hu3F6-H6/Hu3F6-L5 (antibody, human IgG1, V domains shown)
VH: B2 VH
VL: B1 VL with S7T, P12S, E17Q, I29L, S32R, F94Y
notes: as for B1
In turn, B30 had an MFI in test [2] of 1980 MFI.

B31: Hu1B5-H2.1/Hu1B5-L4 (antibody, human IgG1, V domains shown)
VH: B1 VH with Q1E, A24T, M48I, R72V
VL: B1 VL
notes: as for B1
Regarding B31, the MFI in test [1] turned out to be 1720 MFI.

B32: Hu1B5-H2/Hu1B5-L5 (antibody, human IgG1, V domains shown)
VH: B1 VH with Q1E, A24T, R72V
VL: B23 VL
notes: as for B1
In turn, B32 gave an MFI in test [1] of 728 MFI.

B33: Hu1B5-H1/Hu1B5-L5 (antibody, human IgG1, V domains shown)
VH: B1 VH
VL: B23 VL
notes: as for B1
The molecule B33 gave an MFI in test [1] of 481 MFI.

B34: Hu1B5-H2/Hu1B5-L4 (antibody, human IgG1, V domains shown)
VH: B1 VH with Q1E, A24T, R72V
VL: B1 VL
notes: as for B1
In turn, B34 showed an MFI in test [1] of 1630 MFI.

B35: Hu3F6-H6/Hu3F6-L2 (antibody, human IgG1, V domains shown)
VH: B2 VH
VL: B1 VL with P15L, E17Q, I29L, S32R, L42Q, K44R, Q50R, L51R, F94Y
notes: as for B1
In test [2], B35 yielded an MFI of 17 MFI.

B36: Hu3F6-H6/Hu3F6-L7 (antibody, human IgG1, V domains shown)
VH: B2 VH
VL: B1 VL with S7T, L9P, T14N, I29L, S32R, T74S, R82W, F94Y
notes: as for B1
In turn, B36 displayed an MFI in test [2] of 1170 MFI.

B37: Hu3F6-H6/Hu3F6-L1 (antibody, human IgG1, V domains shown)
VH: B2 VH
VL: B1 VL with P15L, E17Q, I29L, S32R, Y41F, L42Q, K44R, Q50R, L51R, F94Y
notes: as for B1
In the case of B37, in test [2], the MFI was 27 MFI.

B38: Hu3F6-H6/Hu3F6-L3 (antibody, human IgG1, V domains shown)
VH: B2 VH
VL: B1 VL with P15L, E17Q, I29L, S32R, L42Q, K44R, Q50R, F94Y
notes: as for B1
In turn, B38 gave an MFI in test [2] of 2090 MFI.

B39: Hu3F6-H6/Hu3F6-L4 (antibody, human IgG1, V domains shown)
VH: B2 VH
VL: B1 VL with V2I, S7T, P12S, E17Q, I29L, S32R, F94Y
notes: as for B1
Molecule B39 came in with an MFI in test [2] of 2000 MFI.

B40: Hu3F6-H1/Hu3F6-L8 (antibody, human IgG1, V domains shown)
VH: B3 VH with E1Q, T24A, I48M, A68V, L70M, V72R, S76T
VL: B1 VL with I29L, S32R, F94Y
notes: as for B1
With B40, the MFI in test [2] came to 1420 MFI.
